The text below walks through data of patent EP4713368A1 (dated 2026).

The chains are these.
B1: Ab No. 61 (antibody, V domains shown)
VH: EVQLLESGGGLVQPGGSLRLSCAASGFTFDHYAMSWVRQAPGKGLEWVSAISASGDETYYADSVKGRFTISRDNSKNTLYLQMNSLRAEDTAVYYCARDSPHMATYKSYYYYGMDVWGQGTTVTVSS
VL: DIVMTQSPDSLAVSLGERATINCKSSQSLLNARTGKNYLAWYQQKPGQPPKLLIYWASTRESGVPDRFSGSGSGTDFTLTISSLQAEDVAVYYCKQSYSLRTFGGGTKVEIK
notes: IgG format
B2: Ab No. 68 (antibody, V domains shown)
VH: EVQLVESGGGLVQPGGSLRLSCAASGFTFQSYAMNWVRQAPGKGLEWVSYISDDASTIYYADSVKGRFTISRDNAKNSLYLQMNSLRAEDTAVYYCAREVHRGWGAFDIWGQGTMVTVSS
VL: DIVMTQSPDSLAVSLGERATINCKSSQSLLNARTGKNYLAWYQQKPGQPPKLLIYWASTRESGVPDRFSGSGSGTDFTLTISSLQAEDVAVYYCKQSYSLRTFGGGTKVEIK
notes: IgG format
B3: Ab No. 60 (antibody, V domains shown)
VH: EVQLLESGGGLVQPGGSLRLSCAASGFTFDNYAMSWVRQAPGKGLEWVSAISADAGQTYYADSVKGRFTISRDNSKNTLYLQMNSLRAEDTAVYYCARDSPHMATYKSYYYYGMDVWGQGTTVTVSS
VL: DIVMTQSPDSLAVSLGERATINCKSSQSLLNARTGKNYLAWYQQKPGQPPKLLIYWASTRESGVPDRFSGSGSGTDFTLTISSLQAEDVAVYYCKQSYSLRTFGGGTKVEIK
notes: IgG format; also called ADI-83102
B4: Ab No. 6 (antibody, V domains shown)
VH: QVQLVQSGAEVKKPGSSVKVSCKASGGTFSSYAISWVRQAPGQGLEWMGGIIPISGTANYAQKFQGRVTITADESTSTAYMELSSLRSEDTAVYYCAKGGFGAPLPTWGQGTLVTVSS
VL: DIQMTQSPSSVSASVGDRVTITCRASQGISSWLAWYQQKPGKAPKLLIYAASSLQSGVPSRFSGSGSGTDFTLTISSLQPEDFATYYCQQGISHPFTFGGGTKVEIK
notes: IgG format
B5: Ab No. 5 (antibody, V domains shown)
VH: QVQLVQSGAEVKKPGSSVKVSCKASGGTFSSYAISWVRQAPGQGLEWMGGIIPISGTANYAQKFQGRVTITADESTSTAYMELSSLRSEDTAVYYCAKGGFGAPLPTWGQGTLVTVSS
VL: DIQLTQSPSSVSASVGDRVTITCRASQDISSWLAWYQQKPGKAPKLLIYAASSLQSGVPSRFSGSGSGTDFTLTISSLQPEDFATYYCQQGNAHPFTFGGGTKVEIK
notes: IgG format
B6: Ab No. 7 (antibody, V domains shown)
VH: QVQLVQSGAEVKKPGSSVKVSCKASGGTFSSYAISWVRQAPGQGLEWMGGIIPISGTANYAQKFQGRVTITADESTSTAYMELSSLRSEDTAVYYCAKGGFGAPLPTWGQGTLVTVSS
VL: DIQMTQSPSSLSASVGDRVTITCRASQSISSYLNWYQQKPGKAPKLLIYSASSLQSGVPSRFSGSGSGTDFTLTISSLQPEDFATYYCQQGSSVPFTFGGGTKVEIK
notes: IgG format
B7: Ab No. 8 (antibody, V domains shown)
VH: QVQLVQSGAEVKKPGSSVKVSCKASGGTFSSYAISWVRQAPGQGLEWMGGIIPISGTANYAQKFQGRVTITADESTSTAYMELSSLRSEDTAVYYCAKTRTVAYPGSDWGQGTLVTVSS
VL: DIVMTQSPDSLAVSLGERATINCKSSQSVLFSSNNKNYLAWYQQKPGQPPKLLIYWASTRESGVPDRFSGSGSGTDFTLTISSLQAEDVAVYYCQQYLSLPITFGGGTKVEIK
notes: IgG format
B8: Ab No. 9 (antibody, V domains shown)
VH: QVQLVQSGAEVKKPGSSVKVSCKASGGTFSSYAISWVRQAPGQGLEWMGGIIPISGTANYAQKFQGRVTITADESTSTAYMELSSLRSEDTAVYYCALGRWLTEAQWGQGTLVTVSS
VL: not shown
notes: IgG format
B9: Ab No. 57 (antibody, V domains shown)
VH: QVQLQESGPGLVKPSETLSLTCTVSGGSISSYYWSWIRQPPGKGLEWIGSIYYSGSTNYNPSLKSRVTISVDTSKNQFSLKLSSVTAADTAVYYCARTEVGATRPREDFQHWGQGTLVTVSS
VL: QSVLTQPPSVSAAPGQKVTISCSGSSSNIGNNYVSWYQQLPGTAPKLLIYDNNKRPSGIPDRFSGSKSGTSATLGITGLQTGDEADYYCGTWDISLGWVFGGGTKLTVL
notes: IgG format
B10: Ab No. 21a (antibody, V domains shown)
VH: QVQLVQSGAEVKKPGSSVKVSCKASGGTFNAYAISWVRQAPGQGLEWMGGIIPISGTAAYAQKFQGRVTITADESTSTAYMELSSLRSEDTAVYYCTRDLGFGAIRDTWGQGTLVTVSS
VL: EIVLTQSPATLSLSPGERATLSCRASQSVSSYLAWFQQKPGQAPRLLIYDASNRATGIPARFSGSGSGTDFTLTISSLEPEDFAVYYCQQSLNLPITFGGGTKVEIK
notes: derived from Ab No. 21 by modifying VH CDRs, VL unchanged; IgG format
B11: Ab No. 21d (antibody, V domains shown)
VH: QVQLVQSGAEVKKPGSSVKVSCKASGGTFSTYAISWVRQAPGQGLEWMGGIIPISGTANYAQKFQGRVTITADESTSTAYMELSSLRSEDTAVYYCTRDLGFGAIRDTWGQGTLVTVSS
VL: EIVLTQSPATLSLSPGERATLSCRASQSVSSYLAWFQQKPGQAPRLLIYDASNRATGIPARFSGSGSGTDFTLTISSLEPEDFAVYYCQQSLNLPITFGGGTKVEIK
notes: as for B10
B12: Ab No. 21b (antibody, V domains shown)
VH: QVQLVQSGAEVKKPGSSVKVSCKASGGTFNAYAISWVRQAPGQGLEWMGGIIPISGTANYAQKFQGRVTITADESTSTAYMELSSLRSEDTAVYYCTRDLGFGAIRDTWGQGTLVTVSS
VL: EIVLTQSPATLSLSPGERATLSCRASQSVSSYLAWFQQKPGQAPRLLIYDASNRATGIPARFSGSGSGTDFTLTISSLEPEDFAVYYCQQSLNLPITFGGGTKVEIK
notes: as for B10
B13: Ab No. 21e (antibody, V domains shown)
VH: QVQLVQSGAEVKKPGSSVKVSCKASGGTFDNYAISWVRQAPGQGLEWMGGIIPISGTAIYAQKFQGRVTITADESTSTAYMELSSLRSEDTAVYYCTRDLGFGAIRDTWGQGTLVTVSS
VL: EIVLTQSPATLSLSPGERATLSCRASQSVSSYLAWFQQKPGQAPRLLIYDASNRATGIPARFSGSGSGTDFTLTISSLEPEDFAVYYCQQSLNLPITFGGGTKVEIK
notes: as for B10
B14: Ab No. 21c (antibody, V domains shown)
VH: QVQLVQSGAEVKKPGSSVKVSCKASGGTFSGYAISWVRQAPGQGLEWMGGIIPISATANYAQKFQGRVTITADESTSTAYMELSSLRSEDTAVYYCTRDLGFGAIRDTWGQGTLVTVSS
VL: EIVLTQSPATLSLSPGERATLSCRASQSVSSYLAWFQQKPGQAPRLLIYDASNRATGIPARFSGSGSGTDFTLTISSLEPEDFAVYYCQQSLNLPITFGGGTKVEIK
notes: as for B10
B15: Ab No. 21f (antibody, V domains shown)
VH: QVQLVQSGAEVKKPGSSVKVSCKASGGTFGGYAISWVRQAPGQGLEWMGGIIPISATAFYAQKFQGRVTITADESTSTAYMELSSLRSEDTAVYYCTRDLGFGAIRDTWGQGTLVTVSS
VL: EIVLTQSPATLSLSPGERATLSCRASQSVSSYLAWFQQKPGQAPRLLIYDASNRATGIPARFSGSGSGTDFTLTISSLEPEDFAVYYCQQSLNLPITFGGGTKVEIK
notes: as for B10
B16: Ab No. 28a (antibody, V domains shown)
VH: EVQLLESGGGLVQPGGSLRLSCAASGFTFGSYAMHWVRQAPGKGLEWVSAISGSGQSTDYADSVKGRFTISRDNSKNTLYLQMNSLRAEDTAVYYCVRGYRLVGILTGSHFDYWGQGTLVTVSS
VL: DIQMTQSPSTLSASVGDRVTITCRASQSIGSWLAWYQQKPGKAPKLLIYKASSLESGVPSRFSGSGSGTEFTLTISSLQPDDFATYYCQQYNILPPTFGGGTKVEIK
notes: derived from Ab No. 28 by modifying VH CDRs, VL unchanged; IgG format
B17: Ab No. 28b (antibody, V domains shown)
VH: EVQLLESGGGLVQPGGSLRLSCAASGFTFSKYQMSWVRQAPGKGLEWVSAISGTGESTDYADSVKGRFTISRDNSKNTLYLQMNSLRAEDTAVYYCVRGYRLVGILTGSHFDYWGQGTLVTVSS
VL: DIQMTQSPSTLSASVGDRVTITCRASQSIGSWLAWYQQKPGKAPKLLIYKASSLESGVPSRFSGSGSGTEFTLTISSLQPDDFATYYCQQYNILPPTFGGGTKVEIK
notes: as for B16
B18: Ab No. 28e (antibody, V domains shown)
VH: EVQLLESGGGLVQPGGSLRLSCAASGFTFGRYAMSWVRQAPGKGLEWVSAISGDAGSTFYADSVKGRFTISRDNSKNTLYLQMNSLRAEDTAVYYCVRGYRLVGILTGSHFDYWGQGTLVTVSS
VL: DIQMTQSPSTLSASVGDRVTITCRASQSIGSWLAWYQQKPGKAPKLLIYKASSLESGVPSRFSGSGSGTEFTLTISSLQPDDFATYYCQQYNILPPTFGGGTKVEIK
notes: as for B16
B19: Ab No. 28f (antibody, V domains shown)
VH: EVQLLESGGGLVQPGGSLRLSCAASGFTFSTYGMNWVRQAPGKGLEWVSAISGSGLNTYYADSVKGRFTISRDNSKNTLYLQMNSLRAEDTAVYYCVRGYRLVGILTGSHFDYWGQGTLVTVSS
VL: DIQMTQSPSTLSASVGDRVTITCRASQSIGSWLAWYQQKPGKAPKLLIYKASSLESGVPSRFSGSGSGTEFTLTISSLQPDDFATYYCQQYNILPPTFGGGTKVEIK
notes: as for B16
B20: Ab No. 28c (antibody, V domains shown)
VH: EVQLLESGGGLVQPGGSLRLSCAASGFPFSAYGMSWVRQAPGKGLEWVSAISGSGGNTDYADSVKGRFTISRDNSKNTLYLQMNSLRAEDTAVYYCVRGYRLVGILTGSHFDYWGQGTLVTVSS
VL: DIQMTQSPSTLSASVGDRVTITCRASQSIGSWLAWYQQKPGKAPKLLIYKASSLESGVPSRFSGSGSGTEFTLTISSLQPDDFATYYCQQYNILPPTFGGGTKVEIK
notes: as for B16
B21: Ab No. 28d (antibody, V domains shown)
VH: EVQLLESGGGLVQPGGSLRLSCAASGFTFDAYAMSWVRQAPGKGLEWVSAISGSGVRTYYADSVKGRFTISRDNSKNTLYLQMNSLRAEDTAVYYCVRGYRLVGILTGSHFDYWGQGTLVTVSS
VL: DIQMTQSPSTLSASVGDRVTITCRASQSIGSWLAWYQQKPGKAPKLLIYKASSLESGVPSRFSGSGSGTEFTLTISSLQPDDFATYYCQQYNILPPTFGGGTKVEIK
notes: as for B16

One assay addresses T1, human CD28 (human, UniProt P10747 19-152, limits assumed).
T1 construct: also called Cluster of Differentiation 28; Tp44
Put plainly: selection from yeast-presented libraries of heavy chains and CD3-binding light chains.
Consider B1, for which the binding result is “binds”.
Take B2: the binding result is “binds”.
Still for that read-out and setting: with B3 the entry was “binds”.

Another assay addresses T1, human CD28. In words: selection from yeast-presented synthetic human antibody libraries.
For the molecule B4, the binding result is reported as “binds”.
On the same count and under the same terms, the same measure for B5: “binds”; for B6: “binds”.
With B7, the binding result was “binds”.
Still for that read-out and setting: the same measure for B8: “binds”; for B9: “binds”.

The target of a further assay is T1, human CD28. Put plainly: affinity maturation of CD28-binding antibodies (Example 10: Discovery of Additional Antibodies that Bind to CD28).
Regarding B10, the binding result is “binds”.
On to B11, for which the binding result is on record as “binds”.
B12: the binding result is given as “binds”.
Same read-out and setting: with B13 the entry was “binds”.
The same measure, in the same setting: with B14 the entry was “binds”.
The same measure, in the same setting: the same measure for B15: “binds”.
On to B16, for which the binding result is “binds”.
For the molecule B17, the binding result is “binds”.
On the same count and under the same terms, with B18 the entry was “binds”.
Consider B19, for which the binding result was “binds”.
With B20, the binding result was “binds”.
For B21, the binding result is “binds”.
